Measurements published in the supplement of paper PMC10065799, “High-throughput profiling of sequence recognition by tyrosine kinases and SH2 domains using bacterial peptide display” (eLife, 2023).

What was measured:
Hck = Hck (UniProt P08631); assay: phosphorylation enrichment, bacterial display (enrichment ratio); higher = better substrate or ligand; peptides without Tyr show the background
EPHB2 = EPHB2 (UniProt P29323); assay: as above
Fer (mouse) = assay: as above
Fyn = Fyn (UniProt P06241); assay: as above
EPHB1 = EPHB1 (UniProt P54762); assay: as above
Fes = Fes (UniProt P07332); assay: as above
AncSZ = assay: as above
FGFR1 = FGFR1 (UniProt P11362); assay: as above
c-Abl (mouse) = assay: as above
FGFR3 = FGFR3 (UniProt P22607); assay: as above
Jak2 = Jak2 (UniProt O60674); assay: as above
c-Src = assay: as above
MERTK = MERTK (UniProt Q12866); assay: as above
c-Src SH2 = assay: SH2 binding enrichment of the phosphorylated peptide, bacterial display (enrichment ratio); higher = better substrate or ligand; peptides without Tyr show the background
SHP2-C SH2 = assay: as above
Grb2 SH2 = Grb2 SH2 (UniProt P62993); assay: as above
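Wherever SH2 binding enrichment of the phosphorylated peptide, bacterial display is given: peptide library displayed on the E. coli surface as eCPX fusions, selected cells deep-sequenced, score is each peptide's frequency after selection divided by its frequency in the input.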
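Wherever phosphorylation enrichment, bacterial display is given: 11-residue human phosphosite peptides and single-mutation variants displayed on the E. coli surface, counted by deep sequencing, each peptide's frequency after selection divided by its frequency in the unselected input library; frequency after pTyr selection over input frequency; kinase dosed for 20-30% of maximal phosphorylation in three min.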

Chain of EPHB2 (P29323 whole entry, looked up): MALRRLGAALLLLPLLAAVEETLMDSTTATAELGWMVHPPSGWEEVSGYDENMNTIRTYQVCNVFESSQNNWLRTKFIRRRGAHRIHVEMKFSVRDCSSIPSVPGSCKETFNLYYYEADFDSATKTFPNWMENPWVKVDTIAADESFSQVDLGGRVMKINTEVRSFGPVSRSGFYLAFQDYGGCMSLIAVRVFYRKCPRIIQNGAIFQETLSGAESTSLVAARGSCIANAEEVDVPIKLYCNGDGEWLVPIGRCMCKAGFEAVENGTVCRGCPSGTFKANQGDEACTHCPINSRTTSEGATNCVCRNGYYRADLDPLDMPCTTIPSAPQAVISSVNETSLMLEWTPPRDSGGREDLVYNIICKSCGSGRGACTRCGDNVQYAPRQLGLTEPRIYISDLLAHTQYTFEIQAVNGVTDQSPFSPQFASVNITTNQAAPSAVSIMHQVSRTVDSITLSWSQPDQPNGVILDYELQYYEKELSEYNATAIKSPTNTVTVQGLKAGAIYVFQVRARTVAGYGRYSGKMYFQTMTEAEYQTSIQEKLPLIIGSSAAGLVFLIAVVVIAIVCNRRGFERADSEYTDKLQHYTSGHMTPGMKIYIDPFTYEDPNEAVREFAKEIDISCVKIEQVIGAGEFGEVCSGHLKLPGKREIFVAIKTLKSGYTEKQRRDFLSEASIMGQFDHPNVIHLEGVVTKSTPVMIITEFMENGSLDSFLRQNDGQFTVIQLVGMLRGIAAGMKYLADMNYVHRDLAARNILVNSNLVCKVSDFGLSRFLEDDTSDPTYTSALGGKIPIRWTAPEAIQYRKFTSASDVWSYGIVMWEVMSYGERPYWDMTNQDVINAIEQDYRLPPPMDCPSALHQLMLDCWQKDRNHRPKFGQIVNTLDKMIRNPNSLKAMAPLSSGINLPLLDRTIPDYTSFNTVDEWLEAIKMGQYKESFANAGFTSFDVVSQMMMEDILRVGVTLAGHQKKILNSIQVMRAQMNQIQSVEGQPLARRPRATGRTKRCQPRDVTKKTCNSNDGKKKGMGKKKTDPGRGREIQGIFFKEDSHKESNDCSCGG
Chain of FGFR3 (P22607 whole entry, looked up): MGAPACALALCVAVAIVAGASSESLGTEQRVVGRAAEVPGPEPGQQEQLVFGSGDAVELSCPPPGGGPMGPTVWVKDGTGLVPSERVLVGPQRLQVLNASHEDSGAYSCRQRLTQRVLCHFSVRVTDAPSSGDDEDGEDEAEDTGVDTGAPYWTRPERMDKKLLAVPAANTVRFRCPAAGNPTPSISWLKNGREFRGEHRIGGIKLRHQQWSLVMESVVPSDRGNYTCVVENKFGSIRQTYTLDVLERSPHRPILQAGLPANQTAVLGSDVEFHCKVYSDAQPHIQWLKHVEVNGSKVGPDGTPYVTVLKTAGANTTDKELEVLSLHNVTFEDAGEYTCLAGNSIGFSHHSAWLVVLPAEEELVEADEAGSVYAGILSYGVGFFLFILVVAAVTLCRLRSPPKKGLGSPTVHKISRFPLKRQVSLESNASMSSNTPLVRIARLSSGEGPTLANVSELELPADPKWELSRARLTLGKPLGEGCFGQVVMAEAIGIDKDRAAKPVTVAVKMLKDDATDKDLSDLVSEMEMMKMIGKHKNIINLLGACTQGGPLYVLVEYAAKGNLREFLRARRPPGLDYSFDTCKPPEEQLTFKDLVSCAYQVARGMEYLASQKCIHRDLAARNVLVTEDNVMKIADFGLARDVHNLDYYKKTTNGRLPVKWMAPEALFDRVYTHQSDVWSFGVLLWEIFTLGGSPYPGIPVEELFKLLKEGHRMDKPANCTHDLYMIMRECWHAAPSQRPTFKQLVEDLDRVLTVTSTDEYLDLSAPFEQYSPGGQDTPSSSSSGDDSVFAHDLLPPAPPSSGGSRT
Chain of Fyn (P06241 whole entry, looked up): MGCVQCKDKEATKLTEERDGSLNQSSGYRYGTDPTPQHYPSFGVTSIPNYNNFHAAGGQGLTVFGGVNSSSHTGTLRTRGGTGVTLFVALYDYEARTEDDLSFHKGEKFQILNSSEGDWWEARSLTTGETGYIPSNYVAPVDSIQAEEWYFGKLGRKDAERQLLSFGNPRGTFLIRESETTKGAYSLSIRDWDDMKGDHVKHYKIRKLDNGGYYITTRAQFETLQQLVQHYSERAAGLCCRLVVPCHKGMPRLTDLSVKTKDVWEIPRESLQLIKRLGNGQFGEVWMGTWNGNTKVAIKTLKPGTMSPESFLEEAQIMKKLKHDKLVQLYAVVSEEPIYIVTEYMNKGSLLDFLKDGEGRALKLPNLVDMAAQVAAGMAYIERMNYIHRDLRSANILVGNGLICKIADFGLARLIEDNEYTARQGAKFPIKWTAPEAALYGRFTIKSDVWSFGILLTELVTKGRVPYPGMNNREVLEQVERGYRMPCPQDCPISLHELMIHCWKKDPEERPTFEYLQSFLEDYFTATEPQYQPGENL
Chain of Fes (P07332 whole entry, looked up): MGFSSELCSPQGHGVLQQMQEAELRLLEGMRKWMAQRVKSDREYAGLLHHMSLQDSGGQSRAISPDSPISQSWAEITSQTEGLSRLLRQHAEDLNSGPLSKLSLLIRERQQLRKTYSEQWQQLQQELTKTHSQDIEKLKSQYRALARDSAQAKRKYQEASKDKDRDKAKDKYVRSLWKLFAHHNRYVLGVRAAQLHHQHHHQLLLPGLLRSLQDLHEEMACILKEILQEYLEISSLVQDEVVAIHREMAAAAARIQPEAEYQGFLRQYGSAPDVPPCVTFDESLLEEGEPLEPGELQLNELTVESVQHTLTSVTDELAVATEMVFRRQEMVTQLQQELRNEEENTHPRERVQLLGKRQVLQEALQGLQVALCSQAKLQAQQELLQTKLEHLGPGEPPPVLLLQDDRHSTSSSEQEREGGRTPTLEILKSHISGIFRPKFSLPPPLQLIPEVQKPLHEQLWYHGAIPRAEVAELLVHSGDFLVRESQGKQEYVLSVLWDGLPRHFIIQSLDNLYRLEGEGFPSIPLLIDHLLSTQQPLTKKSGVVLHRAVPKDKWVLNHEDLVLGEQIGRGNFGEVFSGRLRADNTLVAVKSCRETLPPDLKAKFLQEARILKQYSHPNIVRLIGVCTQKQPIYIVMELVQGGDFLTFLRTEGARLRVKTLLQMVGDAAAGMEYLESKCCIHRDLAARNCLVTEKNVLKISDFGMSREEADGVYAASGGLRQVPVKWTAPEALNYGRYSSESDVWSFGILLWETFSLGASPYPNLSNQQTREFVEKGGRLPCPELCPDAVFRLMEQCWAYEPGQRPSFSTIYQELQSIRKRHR
Chain of EPHB1 (P54762 whole entry, looked up): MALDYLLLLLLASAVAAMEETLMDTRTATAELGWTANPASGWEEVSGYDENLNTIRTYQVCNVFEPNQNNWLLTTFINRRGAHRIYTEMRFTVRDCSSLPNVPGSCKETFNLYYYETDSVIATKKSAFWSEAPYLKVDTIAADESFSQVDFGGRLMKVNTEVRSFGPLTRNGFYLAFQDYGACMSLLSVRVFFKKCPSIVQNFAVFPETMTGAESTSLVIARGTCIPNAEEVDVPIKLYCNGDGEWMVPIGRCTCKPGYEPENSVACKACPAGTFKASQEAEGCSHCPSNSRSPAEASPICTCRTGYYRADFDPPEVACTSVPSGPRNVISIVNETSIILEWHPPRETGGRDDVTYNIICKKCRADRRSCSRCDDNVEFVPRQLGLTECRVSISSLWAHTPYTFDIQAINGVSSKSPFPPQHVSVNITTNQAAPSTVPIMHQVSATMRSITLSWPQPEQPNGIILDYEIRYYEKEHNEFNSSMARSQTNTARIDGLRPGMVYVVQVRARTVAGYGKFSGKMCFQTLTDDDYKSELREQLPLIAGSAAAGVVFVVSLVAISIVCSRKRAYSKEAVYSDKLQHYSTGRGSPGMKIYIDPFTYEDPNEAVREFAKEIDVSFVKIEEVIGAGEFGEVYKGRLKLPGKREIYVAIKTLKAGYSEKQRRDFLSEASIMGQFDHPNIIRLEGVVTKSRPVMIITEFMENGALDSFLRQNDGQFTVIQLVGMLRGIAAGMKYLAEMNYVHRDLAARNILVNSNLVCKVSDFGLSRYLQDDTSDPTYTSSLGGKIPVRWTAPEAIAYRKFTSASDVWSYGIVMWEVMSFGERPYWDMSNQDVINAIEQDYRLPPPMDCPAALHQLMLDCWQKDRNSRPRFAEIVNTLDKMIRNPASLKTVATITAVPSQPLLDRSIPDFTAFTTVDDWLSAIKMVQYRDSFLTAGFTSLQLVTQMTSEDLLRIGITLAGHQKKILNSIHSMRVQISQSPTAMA
Chain of Hck (P08631 whole entry, looked up): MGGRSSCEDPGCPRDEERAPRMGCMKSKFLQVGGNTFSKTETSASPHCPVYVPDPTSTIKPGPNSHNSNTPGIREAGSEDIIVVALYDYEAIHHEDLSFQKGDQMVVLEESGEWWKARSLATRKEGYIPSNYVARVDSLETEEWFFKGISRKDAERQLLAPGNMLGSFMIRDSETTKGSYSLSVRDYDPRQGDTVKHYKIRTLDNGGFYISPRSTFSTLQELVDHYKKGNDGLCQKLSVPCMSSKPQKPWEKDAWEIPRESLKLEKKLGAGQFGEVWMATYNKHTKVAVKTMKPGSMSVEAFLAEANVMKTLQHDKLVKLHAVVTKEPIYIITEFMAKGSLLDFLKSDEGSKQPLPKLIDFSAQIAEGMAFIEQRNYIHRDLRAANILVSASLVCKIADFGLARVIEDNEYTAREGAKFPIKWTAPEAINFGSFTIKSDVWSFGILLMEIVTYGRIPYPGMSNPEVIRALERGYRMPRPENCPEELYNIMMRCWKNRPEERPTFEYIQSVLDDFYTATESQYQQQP

Row | Sequence | SH2 binding enrichment (c-Src SH2) | SH2 binding enrichment (SHP2-C SH2) | SH2 binding enrichment (Grb2 SH2) | phosphorylation enrichment (Hck) | phosphorylation enrichment (EPHB2) | phosphorylation enrichment (Fer (mouse)) | phosphorylation enrichment (Fyn) | phosphorylation enrichment (EPHB1) | phosphorylation enrichment (Fes) | phosphorylation enrichment (AncSZ) | phosphorylation enrichment (FGFR1) | phosphorylation enrichment (c-Abl (mouse)) | phosphorylation enrichment (FGFR3) | phosphorylation enrichment (Jak2) | phosphorylation enrichment (c-Src) | phosphorylation enrichment (MERTK)
1 | CHKCTYKVTGL | 1.34 | 1.46 | 1.46 | 0.472 | 0.462 | 0.419 | 0.49 | 0.444 | 0.682 | 0.622 | 0.488 | 0.523 | 0.693 | 0.556 | 0.504 | 0.453
2 | CKSIHYDLVFL [COL22A1_Y37_V35I] | 1.06 | 0.573 | 0.736 | 0.686 | 0.755 | 8.93 | 0.574 | 0.751 | 1.55 | 1.49 | 0.651 | 0.936 | 0.895 | 1.36 | 0.562 | 1.51
3 | CPPEVYAIMRG [NTRK1_Y757] | 0.814 | 0.9 | 1.3 | 2 | 0.564 | 0.51 | 1.25 | 0.976 | 1.12 | 1.24 | 0.455 | 0.695 | 0.765 | 0.87 | 2.39 | 1.16
4 | CQGSLYPSNHD [LRIG1_Y996] | 0.518 | 0.568 | 0.781 | 0.611 | 0.531 | 0.501 | 0.535 | 0.582 | 0.979 | 0.879 | 0.531 | 0.567 | 0.551 | 1.03 | 0.571 | 0.391
5 | CQNRFYDAKVR [FKBP6_Y188_R183C] | 0.684 | 0.914 | 0.941 | 0.475 | 0.485 | 0.426 | 0.373 | 0.445 | 0.897 | 0.794 | 0.495 | 0.684 | 0.669 | 0.869 | 0.416 | 0.477
6 | CRWKRYQRSHD [GDPD5_Y30] | 0.483 | 0.604 | 0.679 | 0.527 | 0.516 | 0.469 | 0.472 | 0.458 | 0.563 | 0.675 | 0.481 | 0.482 | 0.508 | 0.573 | 0.579 | 0.487
7 | DAPVVYLGSFR [PRAG1_Y132] | 0.53 | 5.6 | 1.08 | 0.575 | 0.449 | 0.448 | 0.436 | 0.402 | 0.906 | 0.773 | 0.418 | 0.743 | 0.52 | 0.73 | 0.449 | 0.476
8 | DCAAIYGSEPE [AKR1A1_Y50_N52S] | 0.633 | 0.553 | 0.927 | 0.844 | 0.578 | 0.599 | 0.968 | 0.572 | 1.34 | 1.14 | 0.453 | 0.791 | 0.726 | 1.46 | 1.4 | 0.474

Continued, in another order:

Row | SH2 binding enrichment (c-Src SH2) | SH2 binding enrichment (SHP2-C SH2) | SH2 binding enrichment (Grb2 SH2) | Sequence | phosphorylation enrichment (Hck) | phosphorylation enrichment (EPHB2) | phosphorylation enrichment (Fer (mouse)) | phosphorylation enrichment (Fyn) | phosphorylation enrichment (EPHB1) | phosphorylation enrichment (Fes) | phosphorylation enrichment (AncSZ) | phosphorylation enrichment (FGFR1) | phosphorylation enrichment (c-Abl (mouse)) | phosphorylation enrichment (FGFR3) | phosphorylation enrichment (Jak2) | phosphorylation enrichment (c-Src) | phosphorylation enrichment (MERTK)
9 | 0.421 | 0.586 | 0.87 | CGTPEYLAPEI [PRKACA_Y205] | 0.633 | 0.757 | 0.679 | 0.531 | 0.893 | 1.57 | 2.65 | 0.718 | 2.42 | 1.06 | 1.51 | 0.535 | 0.463
10 | 0.471 | 0.588 | 0.763 | CPEASYNRSPI [PTAR1_Y42_R41S] | 0.521 | 0.565 | 0.825 | 0.489 | 0.602 | 1.09 | 0.82 | 0.58 | 0.781 | 0.701 | 0.882 | 0.528 | 0.585
11 | 6.38 | 2.87 | 1.3 | CTAIHYNYMCN [TP53_Y234_T231A] | 0.429 | 0.506 | 0.401 | 0.386 | 0.628 | 0.727 | 0.707 | 0.479 | 0.48 | 0.581 | 0.569 | 0.441 | 0.398
12 | 0.931 | 0.661 | 0.874 | CTTIDYNFMCN [TP53_Y234_H233D_YF] | 0.528 | 0.651 | 0.597 | 0.527 | 0.474 | 1.27 | 1.27 | 0.882 | 1.04 | 0.911 | 1.21 | 0.874 | 0.529
13 | 0.895 | 0.605 | 0.949 | CTTIHDNFMCN [TP53_Y234_Y234D_YF] | 0.54 | 0.512 | 0.465 | 0.441 | 0.544 | 0.898 | 0.841 | 0.516 | 0.631 | 0.592 | 0.849 | 0.436 | 0.37
14 | 4.92 | 2.75 | 1.43 | CTTIHYNYMCS [TP53_Y234_N239S] | 0.531 | 0.62 | 0.713 | 0.44 | 0.992 | 0.835 | 0.848 | 0.647 | 0.715 | 0.639 | 0.636 | 0.538 | 0.545
15 | 3.88 | 3.28 | 1.65 | CTTIHYNYMCY [TP53_Y234_N239Y] | 0.647 | 3.42 | 1.25 | 1.15 | 5.43 | 1 | 0.946 | 3.76 | 0.78 | 1.95 | 0.957 | 2.17 | 0.804
16 | 2.07 | 0.994 | 0.927 | CTTIPYNFMCN [TP53_Y234_H233P_YF] | 0.561 | 0.514 | 0.424 | 0.48 | 0.449 | 0.926 | 0.945 | 0.515 | 0.528 | 0.726 | 0.718 | 0.753 | 0.482
17 | 0.576 | 0.759 | 0.977 | DASENYFVTDS [TMEM240_Y77] | 0.659 | 0.886 | 0.517 | 0.444 | 1.44 | 1.23 | 1.41 | 1.35 | 0.86 | 1.44 | 1.37 | 0.492 | 0.516
